From publication PMC12668046, “Single cis‐elements in brassinosteroid‐induced upregulated genes are insufficient to recruit both redox states of the BIL1/BZR1 DNA‐binding domain” (Febs Letters, 2025)

Key:
[1] = target: the molecule itself; assay: SEC; unfused BIL1/BZR1 DBD pretreated with DTT; Superdex 75 10/300 GL Increase; reductant-free buffer 20 mM Tris/HCl pH 8.0, 1 M NaCl, 10% glycerol
[2] = target: the molecule itself; assay: crystal structure; mMBP-Ala-BIL1/BZR1 DBD co-crystallised with DNA fragments containing E-box variants (CATATG or CAGCTG); sitting drop, 293 K, 50 mM sodium cacodylate pH 6.5, 0.2 M KCl, 0.01 M MgCl2, 10% PEG 4000

B1: unfused BIL1/BZR1 DBD (21–104), pretreated with the reductant DTT (domain or fragment, A. thaliana, UniProt Q8S307 21-104, looked up)
chain: ARRKPSWRERENNRRRERRRRAVAAKIYTGLRAQGDYNLPKHCDNNEVLKALCVEAGWVVEEDGTTYRKGCKPLPGEIAGTSSR
notes: also called reduced BIL1/BZR1 DBD; source: expressed and purified as described previously [9, 14, 21]; SEC into reductant-free buffer
B1: binds [1].

B2: mutated maltose-binding protein (mMBP)-Ala-BIL1/BZR1 DBD (amino acids 21–104) (domain or fragment, A. thaliana, UniProt Q8S307 21-104, looked up)
chain: B1 chain
notes: protomers 1 and 2 are chains C and D of the deposited entries; Co-crystallised with E-box DNA fragments; also called mMBP-fused BIL1/BZR1 DBD; mMBP-BIL1/BZR1 (21–104); source: expressed and purified as described previously [9, 14, 21]; SEC
B2: binds [2].
